Positions count from the first letter of the chain named.
B1: SEQ ID NO: 466 (designed binder)
chain: MGSWIFFKEQLAIIKWELEALGGSEAELAWFEDDIAAFEDDLQFYKGQGNPEVEALRKEAAAIRDELQAYRHN
notes: D domain, on phage
B2: SEQ ID NO: 399 (designed binder)
chain: MGSWFEFWERLDAIEWRLWALGGSEAELAAFEKEIAAFESELQAYKGKGNPEVEELRSTAADIRRYLQAYRHN
notes: D domain, on phage
B3: SEQ ID NO: 400 (designed binder)
chain: B2 chain with E9G, D12E, W16S, W19K, S58E, T59H, D62W, R65A
notes: D domain, on phage
B4: SEQ ID NO: 432 (designed binder)
chain: B2 chain with W8Y, E15N, W19F, E55A, S58G, T59E, D62A, R65E, Y66D
notes: D domain, on phage
B5: SEQ ID NO: 439 (designed binder)
chain: MGSWQWFKDDLAYIKETLEALGGSEAELALFEDMIADFEFELQWYKGKGNPEVEALRKEAAAIRDELQAYRHN
notes: D domain, on phage
B6: SEQ ID NO: 444 (designed binder)
chain: B5 chain with Q5Y, Y13E, E16G, T17L, L30E, M34E, D37V, F40Q, W44E
notes: D domain, on phage
B7: SEQ ID NO: 445 (designed binder)
chain: MGSWMFFKEDLADIKWALEALGGSEAELAFFEEEIALFEQHLQQYKGKGNPEVEALRKEAAAIRDELQAYRHN
notes: D domain, on phage
B8: SEQ ID NO: 477 (designed binder)
chain: B7 chain with M5S, F6W, W16F, A17E, F30W, E33L, E34D, L37D, H41A
notes: D domain, on phage
B9: SEQ ID NO: 471 (designed binder)
chain: MGSWFWFKEDLAFIKEDLEALGGSEAELAWFEDGIAFFEWDLQDYKGKGNPEVEALRKEAAAIRDELQAYRHN
notes: D domain, on phage
B10: SEQ ID NO: 474 (designed binder)
chain: B9 chain with F5N, F13I, E16M, D33H, G34N, F37G, W40F, D41E, D44G
notes: D domain, on phage
B11: SEQ ID NO: 473 (designed binder)
chain: B9 chain with F5H, F13I, E16Q, W30T, D33Q, G34W, F37E, D44E
notes: D domain, on phage
B12: SEQ ID NO: 472 (designed binder)
chain: B9 chain with F5Q, F13E, E16H, G34F, F37Q, W40F, D44W
notes: D domain, on phage
B13: SEQ ID NO: 433 (designed binder)
chain: MGSWNEFEDRLDAIWWRLFALGGSEAELAAFEKEIAAFESELQAYKGKGNPEVEALRVEAAFIRTMLQAYRHN
notes: D domain, on phage
B14: SEQ ID NO: 451 (designed binder)
chain: MGSWYWFKQDLAHIKSMLEALGGSEAELAWFEEDIADFESELQEYKGKGNPEVEALRKEAAAIRDELQAYRHN
notes: D domain, on phage
B15: SEQ ID NO: 452 (designed binder)
chain: B14 chain with Y5T, W6F, Q9W, H13D, S16A, M17N, I35L, D37G, S40A
notes: D domain, on phage
B16: SEQ ID NO: 476 (designed binder)
chain: B14 chain with Y5S, H13D, S16I, M17Q, E33W, D37E, S40F, E44D
notes: D domain, on phage
B17: SEQ ID NO: 456 (designed binder)
chain: B14 chain with Q9E, D10E, H13F, S16W, M17E, W30L, D37Y, S40E, E41M
notes: D domain, on phage
B18: SEQ ID NO: 459 (designed binder)
chain: B14 chain with Y5I, W6F, H13E, S16L, M17N, E33D, D37W, E41H, E44D
notes: D domain, on phage
B19: SEQ ID NO: 455 (designed binder)
chain: B14 chain with Y5Q, W6T, Q9D, D10E, S16W, M17E, E33W, D37N, S40E
notes: D domain, on phage
B20: SEQ ID NO: 437 (designed binder)
chain: MGSWWLFKDDLAEIKYWLEALGGSEAELAFFEDDIAEFERGLQIYKGKGNPEVEALRKEAAAIRDELQAYRHN
notes: D domain, on phage
B21: SEQ ID NO: 440 (designed binder)
chain: B5 chain with Q5I, W6L, Y13W, L30F, M34N, F40E, E41Q, W44G
notes: D domain, on phage
B22: SEQ ID NO: 448 (designed binder)
chain: B20 chain with W5T, L6F, D9N, Y16D, F30D, D33W, R40Y, G41S, I44E
notes: D domain, on phage
B23: SEQ ID NO: 465 (designed binder)
chain: B20 chain with W5Y, L6V, D10E, Y16Q, W17F, F30W, R40T, G41Q, I44H
notes: D domain, on phage
B24: SEQ ID NO: 438 (designed binder)
chain: B20 chain with W5Y, L6E, Y16E, D33L, E37D, R40W, G41L, I44L
notes: D domain, on phage
B25: SEQ ID NO: 449 (designed binder)
chain: B20 chain with W5T, L6Y, E13D, Y16Q, D33I, D34E, R40E, G41E, I44E
notes: D domain, on phage
B26: SEQ ID NO: 460 (designed binder)
chain: B20 chain with W5H, D9W, D10T, W17E, F30W, E37T, R40E, G41E, I44W
notes: D domain, on phage
B27: SEQ ID NO: 450 (designed binder)
chain: B7 chain with M5T, F6V, E9Y, A17W, F30D, L37E, Q40E, H41E, Q44E
notes: D domain, on phage
B28: SEQ ID NO: 446 (designed binder)
chain: B7 chain with M5T, D13G, A17E, F30W, E33D, Q40E, H41E, Q44E
notes: D domain, on phage
B29: SEQ ID NO: 447 (designed binder)
chain: B7 chain with M5V, E9D, W16D, A17E, E33I, E34A, Q40W, H41E, Q44E
notes: D domain, on phage
B30: SEQ ID NO: 461 (designed binder)
chain: MGSWVTFKDELADIKDFLEALGGSEAELAFFEVDIAEFEAELQFYKGKGNPEVEALRKEAAAIRDELQAYRHN
notes: D domain, on phage
B31: SEQ ID NO: 463 (designed binder)
chain: B30 chain with V5E, D9Y, D13E, F17Y, F30W, V33D, A40F, F44Y
notes: D domain, on phage
B32: SEQ ID NO: 462 (designed binder)
chain: B30 chain with T6Y, F30E, V33E, E37T, A40Y, E41D, F44W
notes: D domain, on phage
B33: SEQ ID NO: 464 (designed binder)
chain: B30 chain with V5N, D9Y, D13E, D16H, F30M, V33D, E37M, A40W, F44E
notes: D domain, on phage
B34: SEQ ID NO: 434 (designed binder)
chain: MGSWFYFKDDLADINYMLEALGGSEAELAMFEDDIAGFELTLLKYKGKGNPEVEALRKEAAAIRDELQAYRHN
notes: D domain, on phage
B35: SEQ ID NO: 401 (designed binder)
chain: MGSWQEFTMRLDAIYNRLETLGGSEAELAAFEKEIAAFESELQAYKGKGNPEVEWLRQSAANIRSELQAYRHN
notes: D domain, on phage
B36: SEQ ID NO: 435 (designed binder)
chain: MGSWHFFKDDLAWIKNELEALGGSEAELAMFEDDIAMFETMLQSYKGKGNPEVEALRKEAAAIRDELQAYRHN
notes: D domain, on phage
B37: SEQ ID NO: 436 (designed binder)
chain: B36 chain with F6W, D9T, W13D, N16E, M37E, T40E, M41F, S44M
notes: D domain, on phage
B38: SEQ ID NO: 442 (designed binder)
chain: B36 chain with H5G, F6H, D9Q, N16D, E17T, M30F, T40M, M41E, S44D
notes: D domain, on phage
B39: SEQ ID NO: 469 (designed binder)
chain: MGSWEEFKEDLAEIKVWLEALGGSEAELAWFEMGIADFEDGLQFYKGKGNPEVEALRKEAAAIRDELQAYRHN
notes: D domain, on phage
B40: SEQ ID NO: 470 (designed binder)
chain: B9 chain with F5H, F13N, E16D, D17W, G34N, F37D, W40G, D44V
notes: D domain, on phage
B41: SEQ ID NO: 467 (designed binder)
chain: MGSWEFFKEVLAEIKYDLEALGGSEAELAWFETDIAGFEIDLQVYKGKGNPEVEALRKEAAAIRDELQAYRHN
notes: D domain, on phage
B42: SEQ ID NO: 468 (designed binder)
chain: B39 chain with E5V, E6F, E13T, V16N, W17D, G34M, D40A, G41D, F44Y
notes: D domain, on phage
B43: SEQ ID NO: 475 (designed binder)
chain: MGSWSWFKEDLAEIKMELEALGGSEAELAYFEWYIAEFEFQLQHYKGKGNPEVEALRKEAAAIRDELQAYRHN
notes: D domain, on phage
B44: SEQ ID NO: 453 (designed binder)
chain: MGSWSFFKEELANIQVYLEALGGSEAELAWFEEDIADFEEDLQHYKGKGNPEVEALRKEAAAIRDELQAYRHN
notes: D domain, on phage
B45: SEQ ID NO: 454 (designed binder)
chain: B44 chain with S5E, E9Y, N13D, Q15K, V16D, Y17E, D37T, D41W, H44G
notes: D domain, on phage
B46: SEQ ID NO: 441 (designed binder)
chain: MGSWIVFKDDLADIKRWLEALGGSEAELAMFEDEIADFEWQLQDYKGKGNPEVEALRKEAAAIRDELQAYRHN
notes: D domain, on phage
B47: SEQ ID NO: 457 (designed binder)
chain: MGSWNSFKDELAEIKAELEALGGSEAELAFFEEDIAWFEEHLQQYKGKGNPEVEALRKEAAAIRDELQAYRHN
notes: D domain, on phage
B48: SEQ ID NO: 458 (designed binder)
chain: B47 chain with N5D, S6L, D9W, A16L, E17G, F30E, E33Y, H41D, Q44D
notes: D domain, on phage
B49: SEQ ID NO: 443 (designed binder)
chain: MGSWGYFKDDLAWIKGELEALGGSEAELAEFEWFIAVFEEDLQVYKGKGNPEVEALRKEAAAIRDELQAYRHN
notes: D domain, on phage

These binders were tested against T1, recombinant human CD123-Fc (human, UniProt P26951 19-305) (assay: phage ELISA, captured CD123-Fc).
T1 construct: not shown: Fc part of CD123-Fc
T1 sequence: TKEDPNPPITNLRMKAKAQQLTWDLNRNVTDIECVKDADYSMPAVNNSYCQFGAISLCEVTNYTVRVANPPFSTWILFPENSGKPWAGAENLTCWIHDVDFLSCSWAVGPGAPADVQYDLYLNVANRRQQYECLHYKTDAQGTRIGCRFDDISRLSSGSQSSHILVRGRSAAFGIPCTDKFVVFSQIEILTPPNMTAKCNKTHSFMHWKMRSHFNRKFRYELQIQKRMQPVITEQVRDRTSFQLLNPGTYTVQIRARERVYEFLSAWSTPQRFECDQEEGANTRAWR
Description: Individual colonies containing phagemid from BCMA panning output were picked and phage were rescued in 96-well format using VCSM13 helper phage following standard protocols. To assay target binding by ELISA, 96-well plates were coated with 1.3 microg/ml goat anti-human IgG1-Fc antibody followed by incubation with 5 nM of recombinant human target (BCMA-Fc, CD123-Fc, AFP, or AFP123) or IgG1-Fc. 50 microl of rescued phage diluted 5× in ELISA blocking buffer was then added to each well. Binding was detected using an HRP-conjugated anti-M13 antibody and the ELISA ratio for each sequence is reported as the absorbance at 450 nm for target (i.e., BCMA-Fc, CD123-Fc, AFP, or AFP123) divided by that for IgG1-Fc averaged across all screened wells containing that clone.

Point of comparison: B5, ELISA_avg 6.3 ratio A450 target/IgG1-Fc. Against it:
- B1 — higher, 15 ratio A450 target/IgG1-Fc
- B2 — lower, 3.4 ratio A450 target/IgG1-Fc
- B3 — lower, 4.9 ratio A450 target/IgG1-Fc
- B4 — lower, 3 ratio A450 target/IgG1-Fc
- B6 — higher, 10.4 ratio A450 target/IgG1-Fc
- B7 — lower, 3.2 ratio A450 target/IgG1-Fc
- B8 — higher, 6.8 ratio A450 target/IgG1-Fc
- B9 — higher, 13.7 ratio A450 target/IgG1-Fc
- B10 — lower, 3.1 ratio A450 target/IgG1-Fc
- B11 — lower, 5.5 ratio A450 target/IgG1-Fc
- B12 — lower, 3.8 ratio A450 target/IgG1-Fc
- B13 — lower, 5.1 ratio A450 target/IgG1-Fc
- B14 — lower, 3.3 ratio A450 target/IgG1-Fc
- B15 — lower, 4.8 ratio A450 target/IgG1-Fc
- B16 — lower, 4 ratio A450 target/IgG1-Fc
- B17 — higher, 9.4 ratio A450 target/IgG1-Fc
- B18 — lower, 3.8 ratio A450 target/IgG1-Fc
- B19 — lower, 5.5 ratio A450 target/IgG1-Fc
- B20 — lower, 3.3 ratio A450 target/IgG1-Fc
- B21 — lower, 6 ratio A450 target/IgG1-Fc
- B22 — lower, 3.9 ratio A450 target/IgG1-Fc
- B23 — higher, 9.9 ratio A450 target/IgG1-Fc
- B24 — lower, 3.8 ratio A450 target/IgG1-Fc
- B25 — lower, 4.6 ratio A450 target/IgG1-Fc
- B26 — lower, 4 ratio A450 target/IgG1-Fc
- B27 — lower, 3.9 ratio A450 target/IgG1-Fc
- B28 — higher, 7 ratio A450 target/IgG1-Fc
- B29 — higher, 8.8 ratio A450 target/IgG1-Fc
- B30 — higher, 7.6 ratio A450 target/IgG1-Fc
- B31 — lower, 4.4 ratio A450 target/IgG1-Fc
- B32 — lower, 4.6 ratio A450 target/IgG1-Fc
- B33 — lower, 5 ratio A450 target/IgG1-Fc
- B34 — lower, 3.7 ratio A450 target/IgG1-Fc
- B35 — higher, 13.7 ratio A450 target/IgG1-Fc
- B36 — lower, 3.2 ratio A450 target/IgG1-Fc
- B37 — lower, 3.5 ratio A450 target/IgG1-Fc
- B38 — lower, 4.9 ratio A450 target/IgG1-Fc
- B39 — lower, 4.3 ratio A450 target/IgG1-Fc
- B40 — lower, 3.3 ratio A450 target/IgG1-Fc
- B41 — higher, 8.2 ratio A450 target/IgG1-Fc
- B42 — lower, 3.1 ratio A450 target/IgG1-Fc
- B43 — lower, 4.8 ratio A450 target/IgG1-Fc
- B44 — lower, 3.8 ratio A450 target/IgG1-Fc
- B45 — lower, 3.4 ratio A450 target/IgG1-Fc
- B46 — lower, 3.9 ratio A450 target/IgG1-Fc
- B47 — lower, 3.3 ratio A450 target/IgG1-Fc
- B48 — lower, 3.4 ratio A450 target/IgG1-Fc
- B49 — lower, 4.5 ratio A450 target/IgG1-Fc

— patent US20230125550A1 (ARCELLX, published 2023)
